Target: SHG-labeled wildtype NiV G ectodomain (Nipah virus) (UniProt Q9IH62)
Assay: second harmonic generation (SHG)

ephrinB2-229 (10881-HCCH, SinoBiological Inc.) (domain or fragment)
ΔSHG: -15.9%
